pKd: −log10 of the molar value.
What was measured:
[1] = target: TNFR2 immobilized on the SPR sensor chip (channel 1) (UniProt P20333); experiment: SPR (FastStep kinetic assay); right panel is TNFR2; key printed as TNFR1; conditions: designed binder
[2] = target: TNFR1 immobilized on the SPR sensor chip (channel 3) (UniProt P19438); experiment: SPR (FastStep kinetic assay)
[3] = target: TNFR2 immobilized on the SPR sensor chip (channel 1) (UniProt P20333); experiment: SPR (FastStep kinetic assay); conditions: ligand

Sequence of TNFR1 immobilized on the SPR sensor chip (channel 3) (P19438 30-211): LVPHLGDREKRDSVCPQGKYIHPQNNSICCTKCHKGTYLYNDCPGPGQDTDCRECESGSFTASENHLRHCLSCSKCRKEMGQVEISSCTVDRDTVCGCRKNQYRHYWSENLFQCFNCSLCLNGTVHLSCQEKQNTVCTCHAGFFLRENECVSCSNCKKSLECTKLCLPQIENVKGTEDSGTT
Sequence of Recombinant human PGRN (rhPGRN) (P28799 18-593): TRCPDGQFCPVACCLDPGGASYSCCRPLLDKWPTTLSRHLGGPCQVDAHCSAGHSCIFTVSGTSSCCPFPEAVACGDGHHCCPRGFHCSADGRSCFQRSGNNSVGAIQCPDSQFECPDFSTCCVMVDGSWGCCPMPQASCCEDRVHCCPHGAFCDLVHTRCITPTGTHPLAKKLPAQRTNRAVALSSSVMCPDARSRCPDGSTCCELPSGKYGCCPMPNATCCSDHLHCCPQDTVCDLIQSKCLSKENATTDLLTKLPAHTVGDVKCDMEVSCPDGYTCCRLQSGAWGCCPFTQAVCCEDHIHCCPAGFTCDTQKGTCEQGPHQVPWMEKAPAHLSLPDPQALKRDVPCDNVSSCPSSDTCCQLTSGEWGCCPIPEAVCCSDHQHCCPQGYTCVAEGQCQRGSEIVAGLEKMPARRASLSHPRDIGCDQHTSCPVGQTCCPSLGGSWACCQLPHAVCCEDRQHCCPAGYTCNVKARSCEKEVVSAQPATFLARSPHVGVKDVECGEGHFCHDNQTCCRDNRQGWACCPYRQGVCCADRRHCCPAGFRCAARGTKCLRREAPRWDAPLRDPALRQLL

| Substance | pKd [1] | pKd ([2]; designed binder) | pKd [3] | pKd ([2]; ligand) |
| --- | --- | --- | --- | --- |
| Atsttrin-α1 (Antagonist of TNF/TNFR Signaling via Targeting to TNF Receptors-α1), recombinant | 7.04 | 6.85 | – | – |
| Recombinant human PGRN (rhPGRN) (from UniProt P28799 18-593) | – | – | 8.82 | 8.75 |

Source: patent US20140045756A1
